Data as given in patent US20250145711A1 (Janssen / Centocor, published 2025).
Changes are numbered by the printed parent chain.

B1: CD3B2035 (scFv)
scFv: QVQLVQSGAEVKKPGSSVKVSCKASGYTFTRSTMHWVKQAPGQGLEWMGYINPSSAYTNYNQKFQGRVTLTADKSTSTAYMELSSLRSEDTAVYYCASPQVHYDYNGFPYWGQGTLVTVSSGGSEGKSSGSGSESKSTGGSEIVLTQSPATLSASPGERVTLSCSASSSVSYMNWYQQKPGQAPRRWIYDSSKLASGVPARFSGSGSGRDYTLTISSLEPEDFAVYYCQQWSRNPPTFGGGTKVEIK
B2: CD3B2031 (scFv)
scFv: B1 scFv with Q182T
B3: CD3B2063 (scFv)
scFv: B1 scFv with M48I, N61A, Q182T, W187L
B4: CD3B2044 (scFv)
scFv: B1 scFv with K38R, M48I, A183S
B5: CD3B2039 (scFv)
scFv: B1 scFv with N61A, A183S
B6: CD3B2034 (scFv)
scFv: B1 scFv with A183S
B7: CD3B2029 (scFv)
scFv: B1 scFv with M48I, A183S
B8: CD3B2042 (scFv)
scFv: B1 scFv with K38R, M48I, Q182T, A183S, W187L
B9: CD3B2064 (scFv)
scFv: B1 scFv with M48I, N61A, A183S
B10: CD3B2058 (scFv)
scFv: B1 scFv with M48I, N61A, Q182T, A183S
B11: CD3B2037 (scFv)
scFv: B1 scFv with N61A, Q182T, A183S, W187L
B12: CD3B2043 (scFv)
scFv: B1 scFv with K38R, M48I, Q182T, W187L
B13: CD3B2038 (scFv)
scFv: B1 scFv with N61A, Q182T, W187L
B14: CD3B2065 (scFv)
scFv: B1 scFv with M48I, N61A
B15: CD3B2041 (scFv)
scFv: B1 scFv with K38R, M48I, Q182T
B16: CD3B2045 (scFv)
scFv: B1 scFv with K38R, M48I
B17: CD3B2033 (scFv)
scFv: B1 scFv with Q182T, W187L
B18: CD3B2084 (scFv)
scFv: B1 scFv with K38R, N61A, W187L

The binders below were run against T1, CD3 on primary human pan T cells (human, UniProt P07766 23-207) (assay: flow cytometry, pan T-cells).
T1 construct: on cells it stands in the TCR/CD3 complex; also called Pan T-cells (CD3-positive); endogenous CD3
Method: ELISA assays for binding to recombinant CD3 (TRCW5, SEQ ID NO: 39) were performed as above. Cell binding was performed using primary human T cell and Jurkat cells by flow cytometry. Briefly, E. coli expressed anti CD3 ScFv supernatants, either at room temperature, or 55° C., 60° C. or 65° C. heat treated samples.
Pan T-cells (CD3-positive) and Jurkat-CD3-negative cells were prepared by staining Jurkat-CD3-negative cells with CFSE while keeping pan T-cells unstained. Jurkat-CD3-negative cell suspensions were resuspended at 20 million cells per each 50 mL conical tube. Cells were harvested by centrifugation at 400×g for 5 minutes and resuspended in DPBS followed by washing 2× in DPBS. Cells were stained with 1:25,000 dilution for a final dye concentration of 0.02 uM CFSE (2 uL of staining solution to 50 mL of cell suspension). Cells were incubated for 10 minutes at room temperature and centrifuged for 5 minutes at 400×g. After removal of supernatant, 3 mL of HI-FBS were added to the cell pellet, mixed and centrifuged for 5 min at 400×g. Supernatant was removed and cells were resuspended in BD stain buffer at 2×10\hat{ }6 cells/mL and incubated on ice or 4 C protected from light. Human pan T cells were thawed at 37 C and transferred gently into a conical tube containing 15 mL of warm or RT culture media (RPMI+10% FBS). […] Cells were harvested by centrifugation at 400×g for 5 min and resuspended in culture media (RPMI+10% HI-FBS). Pan T-cells (without staining) were prepared at 2×10\hat{ }6 cells/mL in flow staining buffer. Equal volumes of CFSE stained Jurkat-CD3-negative cells and unstained T-cells (CD3-positive) cells were mixed and plated 50 uL/well into assay plates. 50 uL/well neat bacterial supernatant samples and control sample (CD3W36 ScFv) were added to each well and plates were incubated 1 hr at 4 C or. Cells were harvested by centrifugation at 400×g for 4 min and 150 uL staining buffer were added to all wells, followed by centrifugation at 400×g for 4 min to pellet cells. To each well, 150 uL staining buffer were added followed by centrifugation at 400×g for 4 minutes to pellet cells.

T1 sequence (P07766 23-207 limits assumed): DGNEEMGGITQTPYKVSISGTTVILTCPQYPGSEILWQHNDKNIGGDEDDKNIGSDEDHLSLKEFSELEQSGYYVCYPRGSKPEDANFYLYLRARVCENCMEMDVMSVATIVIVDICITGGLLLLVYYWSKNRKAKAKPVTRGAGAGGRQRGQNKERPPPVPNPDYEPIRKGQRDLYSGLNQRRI

Binder	% Binding retained on T-cells, 55° C. [fraction]	% Binding retained on T-cells, 60° C. [fraction]	% Binding retained on T-cells, 65° C. [fraction]	% Binding retained on T-cells, RT [fraction]
B1	1.06	1.14	0.455	1
B2	1.12	1.2	0.543	1
B3	1	0.996	0.185	1
B4	0.786	1.04	0.198	1
B5	1.3	1	0.609	1
B6	0.866	0.784	0.387	1
B7	1.06	1.08	0.329	1
B8	0.993	0.935	0.0842	1
B9	1.17	0.741	0.241	1
B10	1.05	0.808	0.174	1
B11	1.07	0.986	0.061	1
B12	0.991	0.906	0.0805	1
B13	1.03	1.1	0.279	1
B14	1.14	1.33	0.156	1
B15	1.06	1.11	0.447	1
B16	1.05	0.997	0.296	1
B17	1.07	1	0.295	1

These binders were tested against T2, TRCW5 antigen (CD3δε-Fc-Avi) (biotinylated (site not stated)) (assay: ELISA after heat).
T2 construct: also called recombinant CD3
T2 sequence (chain, as listed by the source mutant limits assumed): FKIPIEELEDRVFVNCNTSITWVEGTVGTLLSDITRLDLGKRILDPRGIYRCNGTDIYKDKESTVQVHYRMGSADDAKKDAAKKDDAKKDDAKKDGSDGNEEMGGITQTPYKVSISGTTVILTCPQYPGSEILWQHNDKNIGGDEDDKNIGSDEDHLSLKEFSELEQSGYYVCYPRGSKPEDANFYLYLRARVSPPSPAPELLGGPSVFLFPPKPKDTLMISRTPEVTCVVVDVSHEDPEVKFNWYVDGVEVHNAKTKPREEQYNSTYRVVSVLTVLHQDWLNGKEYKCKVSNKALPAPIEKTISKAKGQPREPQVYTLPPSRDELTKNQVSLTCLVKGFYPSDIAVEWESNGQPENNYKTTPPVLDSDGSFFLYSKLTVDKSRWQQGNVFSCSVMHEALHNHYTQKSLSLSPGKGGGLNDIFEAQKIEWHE

Binder	% Retained 55° C. [%]	% Retained 60° C. [%]	% Retained 65° C. [%]
B1	110	112	47
B2	108	104	36
B3	108	92	11
B4	103	102	14
B5	111	103	44
B6	103	103	38
B7	100	97	29
B8	96	83	2
B9	111	107	33
B10	112	110	20
B11	102	103	23
B18	108	91	9
B12	100	88	4
B13	105	98	22
B14	115	112	48
B15	104	97	16
B16	111	105	28
B17	100	84	11
